The values below come from article PMC10786891, “Massively parallel profiling of RNA-targeting CRISPR-Cas13d”.

T1: EsCas13d, nuclease-dead (Eubacterium siraeum, UniProt B0MS50, R295A;H300A;R849A;H854A)
T1 sequence: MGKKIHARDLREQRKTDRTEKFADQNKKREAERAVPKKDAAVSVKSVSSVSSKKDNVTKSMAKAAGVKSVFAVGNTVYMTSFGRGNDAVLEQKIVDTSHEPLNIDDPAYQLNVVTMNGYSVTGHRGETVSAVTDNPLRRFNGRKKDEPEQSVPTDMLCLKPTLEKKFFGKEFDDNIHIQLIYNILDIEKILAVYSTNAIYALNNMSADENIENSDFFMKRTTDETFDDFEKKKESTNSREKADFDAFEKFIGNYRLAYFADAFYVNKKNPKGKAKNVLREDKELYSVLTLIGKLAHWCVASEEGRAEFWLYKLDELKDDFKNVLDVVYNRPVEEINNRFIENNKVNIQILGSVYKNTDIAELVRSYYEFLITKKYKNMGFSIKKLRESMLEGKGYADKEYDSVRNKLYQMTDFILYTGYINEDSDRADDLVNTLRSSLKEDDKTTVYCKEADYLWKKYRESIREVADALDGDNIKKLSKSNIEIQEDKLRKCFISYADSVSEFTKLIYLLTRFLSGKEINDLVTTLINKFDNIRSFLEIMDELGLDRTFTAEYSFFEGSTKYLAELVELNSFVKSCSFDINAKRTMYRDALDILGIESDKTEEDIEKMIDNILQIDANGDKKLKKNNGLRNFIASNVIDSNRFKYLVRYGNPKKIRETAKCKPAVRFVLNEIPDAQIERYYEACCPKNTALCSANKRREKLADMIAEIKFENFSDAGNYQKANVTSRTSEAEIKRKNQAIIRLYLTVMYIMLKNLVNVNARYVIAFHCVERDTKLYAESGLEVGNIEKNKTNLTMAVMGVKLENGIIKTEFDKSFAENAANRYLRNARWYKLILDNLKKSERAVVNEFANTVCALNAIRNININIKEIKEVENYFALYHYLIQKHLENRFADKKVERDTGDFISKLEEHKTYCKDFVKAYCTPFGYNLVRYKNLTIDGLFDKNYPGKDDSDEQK

B1: target 1 U8C,G15U (mixed)
RNA 1: CACCCGUGCAAAAAUGCAGGGGUCUAAAACUGAGCGGAUAACCUCUCUAUGG
RNA 2: GGGAAUGGAUCCACAUCUACGAAUUCGUACCAUAGAUAGGUUACCCGCUCACCGAGAUCGGAAGAGCACACGU
B2: target 1 A1G,U19A (mixed)
RNA 1: CACCCGUGCAAAAAUGCAGGGGUCUAAAACUGAGCGGAUAACCUCUCUAUGG
RNA 2: GGGAAUGGAUCCACAUCUACGAAUUCGUACCAAAGAGAGGUUAUCCGCUCGCCGAGAUCGGAAGAGCACACGU
B3: target 1 insA 3' of 17,insU 3' of 1 (mixed)
RNA 1: CACCCGUGCAAAAAUGCAGGGGUCUAAAACUGAGCGGAUAACCUCUCUAUGG
RNA 2: GGGAAUGGAUCCACAUCUACGAAUUCGUACCAUAGAAGAGGUUAUCCGCUCAUCCGAGAUCGGAAGAGCACACGU
B4: target 1 insC 3' of 9,insU 3' of 4 (mixed)
RNA 1: CACCCGUGCAAAAAUGCAGGGGUCUAAAACUGAGCGGAUAACCUCUCUAUGG
RNA 2: GGGAAUGGAUCCACAUCUACGAAUUCGUACCAUAGAGAGGUUACUCCGCUUCACCGAGAUCGGAAGAGCACACGU
B5: target 1 insC 3' of 20,insC 3' of 17 (mixed)
RNA 1: CACCCGUGCAAAAAUGCAGGGGUCUAAAACUGAGCGGAUAACCUCUCUAUGG
RNA 2: GGGAAUGGAUCCACAUCUACGAAUUCGUACCACUAGCAGAGGUUAUCCGCUCACCGAGAUCGGAAGAGCACACGU
B6: target 1 A9G,C21A (mixed)
RNA 1: CACCCGUGCAAAAAUGCAGGGGUCUAAAACUGAGCGGAUAACCUCUCUAUGG
RNA 2: GGGAAUGGAUCCACAUCUACGAAUUCGUACAAUAGAGAGGUUGUCCGCUCACCGAGAUCGGAAGAGCACACGU
B7: target 1 insA 3' of 11 (mixed)
RNA 1: CACCCGUGCAAAAAUGCAGGGGUCUAAAACUGAGCGGAUAACCUCUCUAUGG
RNA 2: GGGAAUGGAUCCACAUCUACGAAUUCGUACCAUAGAGAGGUAUAUCCGCUCACCGAGAUCGGAAGAGCACACGU
B8: target 1 G5C,U10C (mixed)
RNA 1: CACCCGUGCAAAAAUGCAGGGGUCUAAAACUGAGCGGAUAACCUCUCUAUGG
RNA 2: GGGAAUGGAUCCACAUCUACGAAUUCGUACCAUAGAGAGGUCAUCCCCUCACCGAGAUCGGAAGAGCACACGU
B9: target 1 insG 3' of 18,insA 3' of 8 (mixed)
RNA 1: CACCCGUGCAAAAAUGCAGGGGUCUAAAACUGAGCGGAUAACCUCUCUAUGG
RNA 2: GGGAAUGGAUCCACAUCUACGAAUUCGUACCAUAGGAGAGGUUAUACCGCUCACCGAGAUCGGAAGAGCACACGU
B10: target 1 insG 3' of 16,insA 3' of 12 (mixed)
RNA 1: CACCCGUGCAAAAAUGCAGGGGUCUAAAACUGAGCGGAUAACCUCUCUAUGG
RNA 2: GGGAAUGGAUCCACAUCUACGAAUUCGUACCAUAGAGGAGGAUUAUCCGCUCACCGAGAUCGGAAGAGCACACGU
B11: target 1 C7A,A14G (mixed)
RNA 1: CACCCGUGCAAAAAUGCAGGGGUCUAAAACUGAGCGGAUAACCUCUCUAUGG
RNA 2: GGGAAUGGAUCCACAUCUACGAAUUCGUACCAUAGAGGGGUUAUACGCUCACCGAGAUCGGAAGAGCACACGU
B12: target 1 complement block 9-11 (mixed)
RNA 1: CACCCGUGCAAAAAUGCAGGGGUCUAAAACUGAGCGGAUAACCUCUCUAUGG
RNA 2: GGGAAUGGAUCCACAUCUACGAAUUCGUACCAUAGAGAGGAAUUCCGCUCACCGAGAUCGGAAGAGCACACGU
B13: target 1 C7U,A9U (mixed)
RNA 1: CACCCGUGCAAAAAUGCAGGGGUCUAAAACUGAGCGGAUAACCUCUCUAUGG
RNA 2: GGGAAUGGAUCCACAUCUACGAAUUCGUACCAUAGAGAGGUUUUUCGCUCACCGAGAUCGGAAGAGCACACGU
B14: target 1 A1C,A16C (mixed)
RNA 1: CACCCGUGCAAAAAUGCAGGGGUCUAAAACUGAGCGGAUAACCUCUCUAUGG
RNA 2: GGGAAUGGAUCCACAUCUACGAAUUCGUACCAUAGCGAGGUUAUCCGCUCCCCGAGAUCGGAAGAGCACACGU
B15: target 1 U3A,A20C (mixed)
RNA 1: CACCCGUGCAAAAAUGCAGGGGUCUAAAACUGAGCGGAUAACCUCUCUAUGG
RNA 2: GGGAAUGGAUCCACAUCUACGAAUUCGUACCCUAGAGAGGUUAUCCGCACACCGAGAUCGGAAGAGCACACGU
B16: target 1 insC 3' of 18,insC 3' of 13 (mixed)
RNA 1: CACCCGUGCAAAAAUGCAGGGGUCUAAAACUGAGCGGAUAACCUCUCUAUGG
RNA 2: GGGAAUGGAUCCACAUCUACGAAUUCGUACCAUACGAGAGCGUUAUCCGCUCACCGAGAUCGGAAGAGCACACGU
B17: target 1 insA 3' of 10,insU 3' of 6 (mixed)
RNA 1: CACCCGUGCAAAAAUGCAGGGGUCUAAAACUGAGCGGAUAACCUCUCUAUGG
RNA 2: GGGAAUGGAUCCACAUCUACGAAUUCGUACCAUAGAGAGGUUAAUCCUGCUCACCGAGAUCGGAAGAGCACACGU
B18: target 1 insC 3' of 14,insC 3' of 8 (mixed)
RNA 1: CACCCGUGCAAAAAUGCAGGGGUCUAAAACUGAGCGGAUAACCUCUCUAUGG
RNA 2: GGGAAUGGAUCCACAUCUACGAAUUCGUACCAUAGAGACGGUUAUCCCGCUCACCGAGAUCGGAAGAGCACACGU
B19: target 1 insU 3' of 14,insA 3' of 3 (mixed)
RNA 1: CACCCGUGCAAAAAUGCAGGGGUCUAAAACUGAGCGGAUAACCUCUCUAUGG
RNA 2: GGGAAUGGAUCCACAUCUACGAAUUCGUACCAUAGAGAUGGUUAUCCGCUACACCGAGAUCGGAAGAGCACACGU
B20: target 1 U3C,G5C (mixed)
RNA 1: CACCCGUGCAAAAAUGCAGGGGUCUAAAACUGAGCGGAUAACCUCUCUAUGG
RNA 2: GGGAAUGGAUCCACAUCUACGAAUUCGUACCAUAGAGAGGUUAUCCCCCCACCGAGAUCGGAAGAGCACACGU
B21: target 1 insU 3' of 22,insC 3' of 9 (mixed)
RNA 1: CACCCGUGCAAAAAUGCAGGGGUCUAAAACUGAGCGGAUAACCUCUCUAUGG
RNA 2: GGGAAUGGAUCCACAUCUACGAAUUCGUACUCAUAGAGAGGUUACUCCGCUCACCGAGAUCGGAAGAGCACACGU
B22: target 1 U3G,A20C (mixed)
RNA 1: CACCCGUGCAAAAAUGCAGGGGUCUAAAACUGAGCGGAUAACCUCUCUAUGG
RNA 2: GGGAAUGGAUCCACAUCUACGAAUUCGUACCCUAGAGAGGUUAUCCGCGCACCGAGAUCGGAAGAGCACACGU
B23: target 1 insC 3' of 22,insC 3' of 11 (mixed)
RNA 1: CACCCGUGCAAAAAUGCAGGGGUCUAAAACUGAGCGGAUAACCUCUCUAUGG
RNA 2: GGGAAUGGAUCCACAUCUACGAAUUCGUACCCAUAGAGAGGUCUAUCCGCUCACCGAGAUCGGAAGAGCACACGU
B24: target 1 insG 3' of 3,insA 3' of 3 (mixed)
RNA 1: CACCCGUGCAAAAAUGCAGGGGUCUAAAACUGAGCGGAUAACCUCUCUAUGG
RNA 2: GGGAAUGGAUCCACAUCUACGAAUUCGUACCAUAGAGAGGUUAUCCGCUGACACCGAGAUCGGAAGAGCACACGU
B25: target 1 insU 3' of 20,insC 3' of 10 (mixed)
RNA 1: CACCCGUGCAAAAAUGCAGGGGUCUAAAACUGAGCGGAUAACCUCUCUAUGG
RNA 2: GGGAAUGGAUCCACAUCUACGAAUUCGUACCAUUAGAGAGGUUCAUCCGCUCACCGAGAUCGGAAGAGCACACGU
B26: target 1 insU 3' of 14,insG 3' of 4 (mixed)
RNA 1: CACCCGUGCAAAAAUGCAGGGGUCUAAAACUGAGCGGAUAACCUCUCUAUGG
RNA 2: GGGAAUGGAUCCACAUCUACGAAUUCGUACCAUAGAGAUGGUUAUCCGCGUCACCGAGAUCGGAAGAGCACACGU
B27: target 1 A1U,U19A (mixed)
RNA 1: CACCCGUGCAAAAAUGCAGGGGUCUAAAACUGAGCGGAUAACCUCUCUAUGG
RNA 2: GGGAAUGGAUCCACAUCUACGAAUUCGUACCAAAGAGAGGUUAUCCGCUCUCCGAGAUCGGAAGAGCACACGU

The target of this data set is T1, EsCas13d, nuclease-dead. The experiment in a line: crRNA (strand 1, pre-loaded); Mg2+; 40 mM Tris-HCl pH 7.5, 150 mM NaCl, 6 mM MgCl2, 1 mM DTT, 0.1% Tween-20, 0.2 mg/ml BSA; 25 C; 10 min per concentration, then washed. The conditions noted are these: tags: His6-TwinStrep-SUMO cleaved; N-terminal SNAP kept (SNAP-Surface 488); label: 3' end held by stalled T7 RNA polymerase.
In general, Kd refers to the equilibrium constant for the complex coming apart. A low value points to a tighter complex. B1 had a dissociation constant (Kd) of 34.6 ± 2.5 nM.
B2 gave a Kd of 29 ± 4 nM.
Turning to B3, binding was put at a Kd of 18.5 ± 1.9 nM.
With B4 the figure was 9.2 ± 0.6 nM; with B5, 4.9 ± 0.6 nM.
With B6 the figure was 36 ± 4 nM.
With B7 the figure was 16.4 ± 0.8 nM; with B8, 23.2 ± 1.2 nM.
As to B9, the affinity, expressed as Kd, was 56 ± 5 nM.
Regarding B10, the Kd is 45 ± 9 nM.
B11 registered a Kd of 15.6 ± 0.6 nM.
With B12 the figure was 22.9 ± 1.5 nM; with B13, 6.3 ± 0.4 nM.
Under B14 stands 42 ± 9 nM; under B15, 26.3 ± 1.6 nM; under B16, 49 ± 6 nM.
For the molecule B17, the Kd came out at 13.9 ± 0.5 nM.
Under B18 stands 48 ± 7 nM; under B19, 56 ± 14 nM; under B20, 6.3 ± 0.7 nM.
With B21 the figure was 36 ± 7 nM; with B22, 28.1 ± 2.2 nM.
With B23 the figure was 50 ± 6 nM.
On to B24, for which the Kd is 6.1 ± 0.4 nM.
With B25 the figure was 30 ± 4 nM; with B26, 31.8 ± 2.8 nM.
With B27 the figure was 29 ± 4 nM.
